In paper PMC10851439 (Biochemistry, 2024):
Where two headings read alike, the source gives them in different places.

Key:
[1] = Dynamic light scattering of LL-37; format: physicochemical; conditions: LL-37 at 1 mg/mL; data not shown
[2] = test system: NTHi 86–028NP ΔsapA mutant; assay: Bactericidal assay, ΔsapA mutant; format: cell-based, nontypeable Haemophilus influenzae; conditions: 10 μg/mL AMP, 1 h
NTHi SapA [3] = molecular target: T1, NTHi SapA (Haemophilus influenzae, UniProt Q4QL73); assay: Spectral shift assay with fluorescently labeled SapA; format: binding, nontypeable Haemophilus influenzae; conditions: peptide up to 100 or 500 μM, triplicate
T1 sequence (Q4QL73 32-546): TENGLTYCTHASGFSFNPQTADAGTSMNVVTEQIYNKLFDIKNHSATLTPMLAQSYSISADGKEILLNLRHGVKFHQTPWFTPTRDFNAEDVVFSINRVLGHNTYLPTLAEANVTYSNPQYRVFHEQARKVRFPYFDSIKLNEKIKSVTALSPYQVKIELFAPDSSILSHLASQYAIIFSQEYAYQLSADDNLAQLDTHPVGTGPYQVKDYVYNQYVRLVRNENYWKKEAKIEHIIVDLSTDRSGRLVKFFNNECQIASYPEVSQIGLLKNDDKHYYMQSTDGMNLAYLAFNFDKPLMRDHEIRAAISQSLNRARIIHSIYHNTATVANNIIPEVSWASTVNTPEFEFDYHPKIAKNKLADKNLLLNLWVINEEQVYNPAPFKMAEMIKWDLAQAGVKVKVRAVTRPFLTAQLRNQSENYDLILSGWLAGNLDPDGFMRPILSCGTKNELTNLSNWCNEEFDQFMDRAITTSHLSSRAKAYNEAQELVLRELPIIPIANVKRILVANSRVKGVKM

[4] = at the concentrations used for affinity experiments; cited from earlier work
NTHi SapA [5] = molecular target: T1, NTHi SapA; assay: SPR single-cycle kinetics, SapA over immobilized AMPs; format: binding, nontypeable Haemophilus influenzae; conditions: LL-37 immobilized on SPR sensor chip, five increasing SapA concentrations
[6] = test system: NTHi strain 86–028NP (parent strain); assay: Bactericidal assay, parental strain; format: cell-based, nontypeable Haemophilus influenzae; conditions: 10 μg/mL AMP, 1 h
[7] = molecular target: hBD-3_(loop) peptide (C2–C4 loop region of hBD-3 with C-terminal linker) (human); assay: SPR
[8] = molecular target: hBD-2_(loop) peptide (C2–C4 loop region of hBD-2 with C-terminal linker) (human); assay: SPR
[9] = molecular target: hNP-1_(loop) peptide (C2–C4 loop region of hNP-1 with C-terminal linker) (human); assay: SPR
[10] = molecular target: human α-defensin 1 (hNP-1) (human); assay: SPR
[11] = molecular target: human β-defensin 3 (hBD-3) (human) (UniProt P81534); assay: SPR
Sequence of human β-defensin 3 (hBD-3) (human) (P81534 23-67): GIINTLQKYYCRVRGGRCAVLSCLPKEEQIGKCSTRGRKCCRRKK

[12] = molecular target: human β-defensin 2 (hBD-2) (human) (UniProt O15263); assay: SPR
Sequence of human β-defensin 2 (hBD-2) (human) (O15263 24-64): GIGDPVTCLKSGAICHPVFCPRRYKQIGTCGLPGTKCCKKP

[13] = molecular target: hBD-3_(loop) peptide (C2–C4 loop region of hBD-3 with C-terminal linker) (human); assay: SPR; remark: listed apart in the source
[14] = molecular target: hBD-2_(loop) peptide (C2–C4 loop region of hBD-2 with C-terminal linker) (human); assay: SPR; remark: listed apart in the source
[15] = molecular target: hNP-1_(loop) peptide (C2–C4 loop region of hNP-1 with C-terminal linker) (human); assay: SPR; remark: listed apart in the source
[16] = cited from earlier work

LL-37: alpha helical peptide, the only member of the cathelicidin family found in humans
aggregation by dynamic light scattering [1]: aggregated at high concentrations | survival of the ΔsapA mutant at 10 μg/mL [2]: neither the parent strain nor the ΔsapA mutant survived | affinity to labeled SapA, result in words (NTHi SapA [3]): low affinity | oligomeric state in solution [4]: higher order oligomers | SapA binding to LL-37 (SPR), result in words (NTHi SapA [5]): low affinity | survival of the parent strain at 10 μg/mL [6]: neither the parent strain nor the ΔsapA mutant survived

NTHi SapA (residues 32–546), wild type (from UniProt Q4QL73 32-546) (natural protein)
Kd [7]: 17.2 nM | ka2 (two-state model, second step) [7]: 0.004 s⁻¹ | kd1 (two-state model, first step) [7]: 0.033 s⁻¹ | kd2 (two-state model, second step) [7]: 0.003 s⁻¹ | Kd [8]: 9.5 nM | ka1 (two-state model, first step) [8]: 750000 M⁻¹ s⁻¹ | ka2 (two-state model, second step) [8]: 0.0024 s⁻¹ | kd1 (two-state model, first step) [8]: 0.019 s⁻¹ | kd2 (two-state model, second step) [8]: 0.0014 s⁻¹ | Kd [9]: 17.1 nM | ka2 (two-state model, second step) [9]: 0.0026 s⁻¹ | kd1 (two-state model, first step) [9]: 0.023 s⁻¹ | kd2 (two-state model, second step) [9]: 0.0019 s⁻¹ | Kd [10]: 4 nM | ka1 (two-state model, first step) [10]: 360000 M⁻¹ s⁻¹ | ka2 (two-state model, second step) [10]: 0.0061 s⁻¹ | kd1 (two-state model, first step) [10]: 0.012 s⁻¹ | kd2 (two-state model, second step) [10]: 0.00069 s⁻¹ | Kd [11]: 10.5 nM | ka1 (two-state model, first step) [11]: 710000 M⁻¹ s⁻¹ | ka2 (two-state model, second step) [11]: 0.0059 s⁻¹ | kd1 (two-state model, first step) [11]: 0.019 s⁻¹ | kd2 (two-state model, second step) [11]: 0.0022 s⁻¹ | Kd [12]: 17.5 nM | ka1 (two-state model, first step) [12]: 630000 M⁻¹ s⁻¹ | ka2 (two-state model, second step) [12]: 0.013 s⁻¹ | kd1 (two-state model, first step) [12]: 0.047 s⁻¹ | kd2 (two-state model, second step) [12]: 0.0026 s⁻¹ | ka1 (two-state model, first step) [13]: 280000 M⁻¹ s⁻¹ | ka2 (two-state model, second step) [13]: 0.012 s⁻¹ | kd1 (two-state model, first step) [13]: 0.028 s⁻¹ | kd2 (two-state model, second step) [13]: 0.00012 s⁻¹ | ka1 (two-state model, first step) [14]: 760000 M⁻¹ s⁻¹ | ka2 (two-state model, second step) [14]: 0.0095 s⁻¹ | kd1 (two-state model, first step) [14]: 0.034 s⁻¹ | kd2 (two-state model, second step) [14]: 0.00024 s⁻¹ | Kd [15]: 3.8 nM | ka1 (two-state model, first step) [15]: 880000 M⁻¹ s⁻¹ | ka2 (two-state model, second step) [15]: 0.0064 s⁻¹ | kd2 (two-state model, second step) [15]: 0.00045 s⁻¹

PR-39
net charge [16]: +10

PSSEQ [hBD-3PSSEQ]
affinity to labeled SapA, result in words (NTHi SapA [3]): completely abolished affinity

SSYGT [hNP-1SSYGT]
affinity to labeled SapA, result in words (NTHi SapA [3]): completely abolished affinity

SSYKQ [hBD-2SSYKQ]
affinity to labeled SapA, result in words (NTHi SapA [3]): completely abolished affinity

protamine
net charge [16]: +21
